Reference: patent US20100330089A1 (Pfizer, published 2010)
One block for each molecule: values may come before it.

How the values were obtained:
Human CD20 (human) [1] = biological target: T1, Human CD20 (human) (UniProt P11836); assay: flow cytometry on primary human B cells, binder at 10 ug/ml (second block)
T1 sequence: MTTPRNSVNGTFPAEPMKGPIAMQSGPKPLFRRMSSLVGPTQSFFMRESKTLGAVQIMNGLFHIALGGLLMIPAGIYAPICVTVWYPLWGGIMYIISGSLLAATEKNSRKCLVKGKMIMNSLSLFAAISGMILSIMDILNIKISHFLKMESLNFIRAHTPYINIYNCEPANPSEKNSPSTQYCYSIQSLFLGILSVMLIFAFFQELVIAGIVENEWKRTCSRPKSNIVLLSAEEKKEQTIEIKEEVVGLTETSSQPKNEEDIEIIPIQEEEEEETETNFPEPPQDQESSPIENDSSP

Human CD20 (human) [2] = biological target: T1, Human CD20 (human); assay: flow cytometry on primary human B cells, binder at 1.1 ug/ml (first block)
Human CD20 (human) [3] = biological target: T1, Human CD20 (human); assay: flow cytometry on primary human B cells, binder at 0.37 ug/ml (first block)
Human CD20 (human) [4] = biological target: T1, Human CD20 (human); assay: flow cytometry on primary human B cells, binder at 0.12 ug/ml (first block)
Human CD20 (human) [5] = biological target: T1, Human CD20 (human); assay: flow cytometry on primary human B cells, binder at 10 ug/ml (first block)
Human CD20 (human) [6] = biological target: T1, Human CD20 (human); assay: cell-based or functional assay
Human CD20 (human) [7] = biological target: T1, Human CD20 (human); assay: flow cytometry on primary human B cells, binder at 1.1 ug/ml (second block)
Human CD20 (human) [8] = biological target: T1, Human CD20 (human); assay: flow cytometry on primary human B cells, binder at 0.12 ug/ml (second block)
Human CD20 (human) [9] = biological target: T1, Human CD20 (human); assay: flow cytometry on primary human B cells, binder at 0.04 ug/ml (second block)
Human CD20 [10] = biological target: T2, Human CD20 (human, UniProt P11836 1-297); assay: flow cytometry on primary human B cells, binder at 10 ug/ml (second block)
T2 construct: also called Bp35
T2 sequence: T1 sequence

Human CD20 [11] = biological target: T2, Human CD20; assay: flow cytometry on primary human B cells, binder at 0.12 ug/ml (first block)
Human CD20 [12] = biological target: T2, Human CD20; assay: flow cytometry on primary human B cells, binder at 10 ug/ml (first block)
Human CD20 [13] = biological target: T2, Human CD20; assay: cell-based or functional assay
Human CD20 [14] = biological target: T2, Human CD20; assay: flow cytometry on primary human B cells, binder at 1.1 ug/ml (second block)
Human CD20 [15] = biological target: T2, Human CD20; assay: flow cytometry on primary human B cells, binder at 0.12 ug/ml (second block)
Human CD20 [16] = biological target: T2, Human CD20; assay: flow cytometry on primary human B cells, binder at 0.04 ug/ml (second block)
CD20 (primary B cells) = CD20 (primary B cells) (UniProt P11836); assay: flow cytometry; conditions: Fc fusion
Human CD20 [17] = biological target: T2, Human CD20; assay: flow cytometry on NU-DHL1, Ramos, SU-DHL4, SU-DHL5 and WSU-DLCL2 cells; confirmed by immunofluorescence on Ramos and WSU-DLCL2
Protocol: (§1) Each of these cell lines was derived from a distinct non-Hodgkin's B-cell lymphoma patient. Briefly, increasing concentrations of CD20-binders were incubated with 100,000 BCL for 30 min at 4° C. Cells were then washed twice with PBS containing 1% BSA to remove unbound antibody and then a FITC labeled goat anti-human (H+ L) secondary antibody (100 fold diluted) was added for 30 min at 4° C. The cells were again washed twice to remove unbound secondary antibody and then resuspended in 1% formaldehyde (in PBS) with 1% BSA. Fluorescence intensity of each sample was measured using a Becton Dickinson FACSORT flow cytometer. Results are expressed as the geometric mean (GeoMean) of the fluorescent intensity.

Human CD20 [18] = biological target: T2, Human CD20; assay: flow cytometry on five human B-lymphoma cell lines
Protocol: as §1

Molecule: RITUXAN (rituximab) (antibody)
MFI (Human CD20 (human) [1]): 172 MFI | MFI (Human CD20 (human) [2]): 173 MFI | MFI (Human CD20 (human) [3]): 137 MFI | MFI (Human CD20 (human) [4]): 106 MFI | MFI (Human CD20 (human) [5]): 199 MFI | % lysis (CDC on Ramos cells), 0.12 ug/ml (Human CD20 (human) [6]): 56.5 % lysis | % lysis (CDC on Ramos cells), 0.37 ug/ml (Human CD20 (human) [6]): 60.2 % lysis | % lysis (CDC on Ramos cells), 1.1 ug/ml (Human CD20 (human) [6]): 57.1 % lysis | % lysis (CDC on Ramos cells), 10 ug/ml (Human CD20 (human) [6]): 82.5 % lysis | % lysis (CDC on Ramos cells), 1 nm (Human CD20 (human) [6]): 67.6 % lysis | % lysis (CDC on Ramos cells), 4 nm (Human CD20 (human) [6]): 65.1 % lysis | % lysis (CDC on Ramos cells), 11 nm (Human CD20 (human) [6]): 66.3 % lysis | % lysis (CDC on Ramos cells), 100 nm (Human CD20 (human) [6]): 81.9 % lysis | MFI (Human CD20 (human) [7]): 93 MFI | MFI (Human CD20 (human) [8]): 82.3 MFI | MFI (Human CD20 (human) [9]): 43.1 MFI

Molecule: TRU-015 (Fc fusion)
MFI (Human CD20 [10]): 124 MFI | MFI (Human CD20 [11]): 42.8 MFI | MFI (Human CD20 [12]): 149 MFI | % lysis (CDC on Ramos cells), 0.12 ug/ml (Human CD20 [13]): 16.3 % lysis | % lysis (CDC on Ramos cells), 0.37 ug/ml (Human CD20 [13]): 38.8 % lysis | % lysis (CDC on Ramos cells), 1.1 ug/ml (Human CD20 [13]): 56.1 % lysis | % lysis (CDC on Ramos cells), 10 ug/ml (Human CD20 [13]): 67.7 % lysis | % lysis (CDC on Ramos cells), 1 nm (Human CD20 [13]): 19.8 % lysis | % lysis (CDC on Ramos cells), 4 nm (Human CD20 [13]): 26.2 % lysis | % lysis (CDC on Ramos cells), 11 nm (Human CD20 [13]): 49.7 % lysis | % lysis (CDC on Ramos cells), 100 nm (Human CD20 [13]): 86.1 % lysis | MFI (Human CD20 [14]): 53.4 MFI | MFI (Human CD20 [15]): 31.4 MFI | MFI (Human CD20 [16]): 19.9 MFI

B3: 018008 (Fc fusion, not shown: a dimerising Fc or GST)
chain: EIVLTQSPATLSLSPGERATLSCRASQSVSYMHWYQQKPGQAPRLLIYAPSNLASGIPARFSGSGSGTDFTLTISSLEPEDFAVYYCQQWSFNPPTFGQGTKVEIKDGGGSGGGGSGGGGTGEVQLVQSGAEVKKPGESLKISCKGSGYSFTSYNMHWVRQMPGKGLEWMGAIYPGNGDTSYNQKFKGQVTISADKSISTAYLQWSSLKASDTAMYYCARVVYYSNSYWYFDLWGRGTLVTVSS
notes: Humanized SMIP as named without a hinge suffix
binding result (Human CD20 [18]): binds

Further lines, results first:

EC50 (CD20 (primary B cells)): 0.279 µg/mL
Molecule: TRU-015

binding result (Human CD20 [17]): binds
B1: 018011 (Fc fusion)
chain: EIVLTQSPATLSLSPGERATLSCRASQSVSYIVWYQQKPGQAPRLLIYAPSNLASGIPARFSGSGSGTDFTLTISSLEPEDFAVYYCQQWSFNPPTFGQGTKVEIKDGGGSGGGGSGGGGTGEVQLVQSGAEVKKPGESLKISCKGSGYSFTSYNMHWVRQMPGKGLEWMGAIYPGNGDTSYNQKFKGQVTISADKSISTAYLQWSSLKASDTAMYYCARSYYSNSYWYFDLWGRGTLVTVSS
notes: not shown: called human IgG1

binding result (Human CD20 [18]): binds
B2: 2Lm20-4 (Fc fusion, not shown: a dimerising Fc or GST)
chain: EIVLTQSPATLSLSPGERATLSCRASSSVSYIVWYQQKPGQAPRLLIYAPSNLASGIPARFSGSGSGTDFTLTISSLEPEDFAVYYCQQWSFNPPTFGQGTKVEIKDGGGSGGGGSGGGGSSQVQLVQSGAEVKKPGASVKVSCKASGYTFTSYNMHWVRQAPGQGLEWMGAIYPGNGDTSYNQKFKGRVTMTRDTSTSTVYMELSSLRSEDTAVYYCARSYYSNSYWYFDLWGRGTLVTVSS
notes: as for B3
